In patent publication US20230374534, “TRANSGENIC PLANT HAVING COLD RESISTANCE OVEREXPRESSING THIOREDOXIN TRX-H2 PROTEIN” (INDUSTRY-ACADEMIC COOPERATION FOUNDATION GYEONGSANG …, published 2023):

Legend:
MBP (control) = MBP (control) (UniProt P0AEX9 P0AEX9:27-396); experiment: EMSA; His-MBP used as negative control; gel only in figure
CBF1 = CBF1 (Arabidopsis thaliana, UniProt P93835 SEQ:1-213); experiment: EMSA; 1 mM DTT (reducing), poly(dI-dC), 25 C, 30 min; binding redox-dependent; gel only in figure; conditions: tags: His (pET28a, E. coli); label: biotin
Chain of CBF1 (P93835 whole entry, the tested form may be a part): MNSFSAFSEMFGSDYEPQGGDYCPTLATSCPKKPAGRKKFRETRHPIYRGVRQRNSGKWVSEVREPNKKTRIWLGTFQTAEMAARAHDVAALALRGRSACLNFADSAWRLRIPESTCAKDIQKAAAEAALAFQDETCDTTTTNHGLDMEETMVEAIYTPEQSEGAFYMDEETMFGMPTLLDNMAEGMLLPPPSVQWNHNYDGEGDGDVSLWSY
Protocol: FIGS. 3A to 3D are the results of EMSAs showing the redox-dependent binding of His-CBF1 to biotin-labeled COR15a promoter fragment (oligoprobe) in the presence of 1 mM DTT (FIG. 3A), 1 mM H₂O₂ (FIG. 3B), and a Trx system comprising 5 μM Trx-h2 (FIG. 3C) or Trx-h2(C/S) (FIG. 3D) with His-MBP as a control. FIG. 3E is the schematic representation of the COR15a promoter. P1 and P2 indicate the primer binding sites for qRT-PCR. […] (FIG. 3F) or 4° C. (FIG. 3G) for 6 h.
To carry out EMSAs, a biotin-labeled oligonucleotide probe (Table 1) was processed using a lightshift™ chemiluminescent EMSA Kit (Thermo Fisher Scientific, Rockford, IL, USA). Recombinant CBF1 (5 μg) was incubated with 40 fmol of biotin-labeled probe and 20 μl of reaction mixture containing 25 ng/μl Poly (dl-dC) binding buffer at 25° C. for 30 min. The reaction products were resolved on a 6% polyacrylamide gels. Probes bound to CBF1 were transferred to charged Hybond-N membrane and detected by western blotting with anti-biotin antibody (Abcam, Cambridge, MA, USA).

B1: COR15a promoter CRT/DRE probe (-275 to -253) (dsDNA)
DNA 1: ATTTCATGGCCGACCTGCTTTTT
DNA 2: AAAAAGCAGGTCGGCCATGAAAT
**Q.** What does the source list for B1?
**A.** binding result (MBP (control)): no binding; binding result (CBF1): binds
